Experimental data as given in article PMC5177531.

What was measured:
[1] = target: T1, 6TM/E11 mu opioid receptor site 6TM variant (Mus musculus), P42866; assay: competition; details: modification not given
T1 chain: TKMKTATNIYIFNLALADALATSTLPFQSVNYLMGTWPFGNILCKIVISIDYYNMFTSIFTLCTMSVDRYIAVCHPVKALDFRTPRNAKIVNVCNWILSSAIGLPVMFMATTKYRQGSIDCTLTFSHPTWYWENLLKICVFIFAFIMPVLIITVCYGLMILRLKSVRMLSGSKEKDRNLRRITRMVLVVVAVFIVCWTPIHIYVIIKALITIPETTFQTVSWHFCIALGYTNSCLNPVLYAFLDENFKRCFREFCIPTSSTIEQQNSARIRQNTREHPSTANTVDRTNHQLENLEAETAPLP

[2] = target: mMOR-1 (Mus musculus), P42866; assay: competition; details: modification not given
mMOR-1 (Mus musculus), P42866, sequence (P42866 whole entry): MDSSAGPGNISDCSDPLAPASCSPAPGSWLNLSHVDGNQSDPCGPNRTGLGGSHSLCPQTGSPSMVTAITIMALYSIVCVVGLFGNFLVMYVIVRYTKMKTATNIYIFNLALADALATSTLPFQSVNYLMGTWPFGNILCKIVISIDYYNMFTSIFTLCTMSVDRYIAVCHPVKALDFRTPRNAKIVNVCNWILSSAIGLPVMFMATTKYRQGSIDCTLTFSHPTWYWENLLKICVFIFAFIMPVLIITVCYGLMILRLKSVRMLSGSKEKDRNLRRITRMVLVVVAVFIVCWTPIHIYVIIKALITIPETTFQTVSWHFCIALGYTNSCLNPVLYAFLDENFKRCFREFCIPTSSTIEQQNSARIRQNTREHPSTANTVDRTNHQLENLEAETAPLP

YAFGYPS [Dermorphin]
Ki [1]: > 500 nM
Ki [2]: 4 nM
